Trimeric HA Binding: RLU data for two molecules are collected here from patent US20150086555A1.

Holding throughout (details): remark: other sources report otherwise
The target of test [1] is recombinant soluble homotrimeric HA of A/Hong Kong/1073/99 (H9N2) (Influenza A virus A/Hong Kong/1073/99 (H9N2)). In words: trimeric HA microarray, transfection supernatant set 1.
In test [2] the target is recombinant soluble homotrimeric HA of A/Hong Kong/2108/03 (H9N2) (Influenza A virus A/HK/2108/2003(H9N2)). The test is described as above.
Test [3] has as its target recombinant soluble homotrimeric HA of A/northern shoveler/California/HKWF115/07 (H6) (Influenza A virus A/northern shoveler/California/HKWF115/2007(H6N1)). The test is described as above.
Test [4] concerns the target recombinant soluble homotrimeric HA of A/Anhui/1/05 (H5N1) (Influenza A virus A/Anhui/1/2005(H5N1)). In words: HA microarray, control antibody.
Test [5] concerns the target recombinant soluble homotrimeric HA of A/California/4/09 (H1N1) (Influenza A virus A/California/04/2009(H1N1)). In words: HA microarray, control antibody.
The target in test [6] is recombinant soluble homotrimeric HA of A/Egypt/3300-NAMRU3/08 (H5N1) (Influenza A virus A/Egypt/3300-NAMRU3/2008(H5N1)). The experiment in a line: HA microarray, control antibody.
The target in test [7] is recombinant soluble homotrimeric HA of A/Indonesia/5/05 (H5N1) (Influenza A virus A/Indonesia/5/2005(H5N1)). In words: HA microarray, control antibody.
The target in test [8] is recombinant soluble homotrimeric HA of A/Japan/305/57 (H2N2) (Influenza A virus A/Japan/305/1957(H2N2)). In words: HA microarray, control antibody.
The target of test [9] is recombinant soluble homotrimeric HA of A/Netherlands/219/03 (H7N7) (Influenza A virus A/Netherlands/219/03(H7N7)). The experiment in a line: HA microarray, control antibody.
For test [10], the target named is recombinant soluble homotrimeric HA of A/Solomon Islands/3/06 (H1N1) (Influenza A virus A/Solomon Islands/3/2006(H1N1)). The experiment in a line: HA microarray, control antibody.
For test [11], the target named is recombinant soluble homotrimeric HA of A/Vietnam/1203/04 (H5N1) (Influenza A virus A/VietNam/1203/2004(H5N1)). The experiment in a line: HA microarray, control antibody.
The target in test [12] is T1, recombinant soluble homotrimeric HA of A/Wisconsin/67/05 (H3N2) (Influenza A virus A/Wisconsin/67/2005(H3N2)). The experiment in a line: HA microarray, control antibody.
Test [13] has as its target T2, recombinant soluble homotrimeric HA of A/duck/Yangzhou/02/05 (H8N4) (Influenza A virus A/duck/Yangzhou/02/2005(H8N4)). In words: HA microarray, control antibody.
The target of test [14] is T3, recombinant soluble homotrimeric HA of A/swine/Ontario/01911-2/99 (H4N6) (Influenza A virus A/Swine/Ontario/01911-2/99 (H4N6)). In words: HA microarray, control antibody.
The target of test [15] is T1, recombinant soluble homotrimeric HA of …. In words: trimeric HA microarray, transfection supernatant set 1.
In test [16] the target is T2, recombinant soluble homotrimeric HA of …. Described as above.
The target of test [17] is T3, recombinant soluble homotrimeric HA of …. The test is described as above.

B1: TCN-523 (5248_A17) (antibody, V domains shown)
VH: QVQLVQSGAEVKKPGSSVKVSCKASGGSFSNYAFSWVRQAPGQGLEWMGGTIPLLGTTNYAQKFQGRVTISADQFTSTAYMELGSLRSEDTAVYYCTRRKMTTAFDSWGQGTLVTVSS
VL: QPVLTQPPSASASLGASVTLTCTLSSAYSNYKVDWYQQRPGKGPRFVMRVGTGGIVGSKGDGIPDRFSVLGSGLNRYLTIKNIQEEDESDYHCGADHGSGSNFVSPYVFGGGTKLTVL
For the molecule B1, the Trimeric HA Binding: RLU in test [1] was 21700 RLU; in test [2], 41 RLU; in test [3] it was 9050 RLU.

B2: TCN-504 (3251_K17) (antibody, V domains shown)
VH: QVQLQESGPGLVKPSETLSLTCAVSGVSISNIDFYWGWIRQPPGKGLEWIGNIYYTGITFYNPSLSSRVAISIDTSKNQFSLTLTSVTAADTAMYYCARHYGDSEAINDAFDIWGQGTMLTVSS
VL: EIVMTQSPATLSVSPGERATLSCRASQSVGNSLAWYQQRPGQAPRLLIYGASTRATGIPPRFSGSGSGTEFTLTISSLQTEDFAVYYCQQYINWRPLSFGGGTKVEIK
As for B2, the Trimeric HA Binding: RLU in [4] came out at 26200 RLU; in [5], 3330 RLU; in test [6] it was 44400 RLU; in [7], 43300 RLU; in test [8] it was 4090 RLU; in test [9], 47200 RLU. Also, the Trimeric HA Binding: RLU in test [10] stood at 24100 RLU; in test [11], 196 RLU; in test [12] it was 40500 RLU; in [13], 14100 RLU; in [14], 14700 RLU; in test [15], 14300 RLU. Also, the Trimeric HA Binding: RLU amounted to 28900 RLU in test [16] and 26500 RLU in test [17].
